Experimental data: paper doi:10.1101/2022.09.13.507756 (bioRxiv, 2022)

B1: Cyclohexadienyl dehydratase from Pseudomonas aeruginosa (PaCDT) (enzyme, UniProt Q01269 26-268, looked up)
chain: QESRLDRILESGVLRVATTGDYKPFSYRTEEGGYAGFDVDMAQRLAESLGAKLVVVPTSWPNLMRDFADDRFDIAMSGISINLERQRQAYFSIPYLRDGKTPITLCSEEARFQTLEQIDQPGVTAIVNPGGTNEKFARANLKKARILVHPDNVTIFQQIVDGKADLMMTDAIEARLQSRLHPELCAVHPQQPFDFAEKAYLLPRDEAFKRYVDQWLHIAEQSGLLRQRMEHWLEYRWPTAHGK
B2: Ws0279 (natural protein, UniProt Q7MAG0 24-258, looked up)
chain: QKSTLNEIIKRGELRVGLEPGYLPFEMKDKKGNVIGFDVDLAREMAKAMGVKLKLVPTSWDGLIPGLVTEKFDIIISGMTISQERNLRVNFVEPYIVVGQSLLVKKGLEKGVKSYKDLDKPELTLVTKFGVSAEYAAKRLFKNAKLKTYDTEAEAVQEVLNGKADMFIFDLPFNVAFMAQKGQGYLVHLDTSLTYEPLGWAIKKGDPDFLNWLNHFLAQIKHDGSYDELYERWFV
B3: PaCDTΔC (enzyme, Pseudomonas aeruginosa, UniProt Q01269 26-259, looked up)
chain: QESRLDRILESGVLRVATTGDYKPFSYRTEEGGYAGFDVDMAQRLAESLGAKLVVVPTSWPNLMRDFADDRFDIAMSGISINLERQRQAYFSIPYLRDGKTPITLCSEEARFQTLEQIDQPGVTAIVNPGGTNEKFARANLKKARILVHPDNVTIFQQIVDGKADLMMTDAIEARLQSRLHPELCAVHPQQPFDFAEKAYLLPRDEAFKRYVDQWLHIAEQSGLLRQRMEHWLE

Tests used:
[1] = target: the molecule itself; assay: SEC + SEC-MALS
[2] = target: the molecule itself; assay: SEC

Row | Protein | stoichiometry N [1] | stoichiometry N [2]
1 | B1 | 3 | 
2 | B2 |  | 3
3 | B3 |  | 3
